Our source for the IC50(nM), PK activity in human plasma activated with Factor XIIa (H-Pro-Phe-Arg-AMC) and IC50(nM), PK enzyme activity on H-Pro-Phe-Arg-AMC (fluorescence) values is patent publication CN114790245A.

The experiment addresses 血浆激肽释放酶(plasma kallikrein,PK) (human) (UniProt P03952). Briefly: cell-based or functional assay.
Chain of UniProt P03952 (P03952 20-638 limits assumed): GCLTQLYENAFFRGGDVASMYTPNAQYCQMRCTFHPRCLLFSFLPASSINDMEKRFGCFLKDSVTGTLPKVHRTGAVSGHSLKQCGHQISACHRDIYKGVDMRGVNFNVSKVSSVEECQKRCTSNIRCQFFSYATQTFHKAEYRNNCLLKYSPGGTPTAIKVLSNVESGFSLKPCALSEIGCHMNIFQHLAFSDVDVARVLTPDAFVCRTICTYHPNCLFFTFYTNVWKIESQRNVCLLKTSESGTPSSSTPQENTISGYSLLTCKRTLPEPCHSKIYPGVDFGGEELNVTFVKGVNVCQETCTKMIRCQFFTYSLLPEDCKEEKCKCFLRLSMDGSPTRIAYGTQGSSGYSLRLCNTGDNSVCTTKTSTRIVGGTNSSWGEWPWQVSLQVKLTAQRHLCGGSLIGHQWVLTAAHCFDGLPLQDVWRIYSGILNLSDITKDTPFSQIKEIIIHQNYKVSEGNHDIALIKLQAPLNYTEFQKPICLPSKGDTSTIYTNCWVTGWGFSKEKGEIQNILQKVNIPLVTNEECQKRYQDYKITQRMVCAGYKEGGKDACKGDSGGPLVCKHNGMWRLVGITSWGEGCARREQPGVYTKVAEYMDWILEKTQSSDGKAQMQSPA

Consider MHL(Lanadelumab) (antibody), for which the IC50(nM), PK activity in human plasma activated with Factor XIIa (H-Pro-Phe-Arg-AMC) was 1.17 nM and the IC50(nM), PK enzyme activity on H-Pro-Phe-Arg-AMC (fluorescence) was found to be 0.99 nM.
